Seven molecules from patent US20070054863A1 (SANFORD BURNHAM MEDICAL RESEARCH INSTITUTE, published 2007) can be followed below.

The target in one assay is T1, Nur77 (Homo sapiens (Human), UniProt P22736 1-598).
T1 construct: also called TR3; NGFI-B
Put plainly: not described.

Assay [1] addresses T2, GST-Bcl-2 (UniProt P08515 1-218 = GST; P10415 1-218).
T2 construct: Bacterially expressed, purified GST fusion used in FP, CD and in vitro immunoprecipitation; also called purified GST-Bcl-2 protein; bacterially expressed Bcl-2
Put plainly: fluorescence polarization competition. How it is done:
(§1) Fluorescence polarization (FP) analysis was used to determine whether NuBCPs interacted directly with Bcl-2. […] GST-Bcl-2, but not GST-Bcl-XL or GST, induced a concentration-dependent FP of FITC-NuBCP-9-r8 and FITC-D-NuBCP-9-r8, while FITC-NuBCP-9/AA-r8 was little affected (FIG. 2C-E). […] Thus, NuBCP-9 and D-NuBCP-9 bind directly and competitively to Bcl-2.
(§2) Fluorescence polarization (FP) assays. GST-Bcl-2, GST-Bcl-XL, or GST protein was briefly incubated with FITC-conjugated peptide with or without competitors in Greiner Fluotrac 600 96-well microplates. Fluorescence polarization was recorded using an Analyst HT 96-384 microplate reader (Molecular Devices, Sunnyvale, Calif.) with excitation wavelength set at 485 nm and dynamic polarizer for emission at 530 nm.

A further assay has as its target T3, GST-Bcl-XL (UniProt P08515 1-218 = GST; Q07817 1-211).
T3 construct: Control protein in FP and CD assays
Put plainly: fluorescence polarization. How it is done: as §1, §2
On the technique in general: In fluorescence polarisation assays a small probe gives low polarisation when free and higher when bound to something large.

The target in another assay is T4, GST (UniProt P08515 1-218 = GST).
T4 construct: Control protein in FP and CD assays; also called GST protein
Put plainly: fluorescence polarization. As for the experimental part: as §1, §2

For assay [2], the target named is T2, GST-Bcl-2. The experiment in a line: circular dichroism of GST-Bcl-2 with peptide, non-linear regression, one-site-binding model. How it is done:
We then explored whether the Bcl-2 conformational change by Bcl-2 was a direct consequence of Nur77 binding. Experiments were performed to determine whether NuBCPs could induce a conformational change of bacterially expressed Bcl-2. To this end, the ability of purified GST-Bcl-2 protein to react with anti-Bcl-2/BH3 antibody in the presence of NuBCP was analyzed by immunoprecipitation assay. […] In contrast, NuBCP-9, D-NuBCP-9 and NuBCP-9/AA had no effect on CD spectra for GST or Bcl-XL (FIGS. 9-11). Thus, the NuBCP-induced Bcl-2 conformational change observed in cells can be accounted for by direct binding of NuBCPs to Bcl-2.
Circular dichroism (CD) spectroscopy. Stock solutions of 3 mM peptide in 30% acetonitrile/water were added to 0.5 mL of 2 μM purified GST-proteins in PBS, pH 7.6. CD spectra were obtained in a 0.2 cm pathlength cell at 20° C. using an AVIV 62 DS spectropolarimeter for a wavelength range from 200 to 260 nm with a step size of 1 nm averaged for 5 sec. Three spectra were corrected for background and averaged for each sample. The Kd was determined using nonlinear regression analysis for a one-site-binding model (χ2>0.98). Stoichiometry was determined from a […] (Jones, G. et al. 2002 Tet. Let. 43 :6079-6082).

Assay [3] concerns the target T5, Bcl-2 (UniProt P10415 1-239).
T5 construct: Cellular Bcl-2 in co-immunoprecipitation and immunostaining assays; also called endogenous Bcl-2
The experiment in a line: not described at this place.

The target in assay [4] is T5, Bcl-2. Put plainly: immunoprecipitation.

[ ]: non-standard residue; d: D form. The star is where a group is joined. FITC = O=C1OC2(c3ccc(O)cc3Oc3cc(O)ccc32)c2ccc(NC(=S)*)cc21; Ahx = NCCCCCC(=O)O

T5 sequence (P10415 whole entry): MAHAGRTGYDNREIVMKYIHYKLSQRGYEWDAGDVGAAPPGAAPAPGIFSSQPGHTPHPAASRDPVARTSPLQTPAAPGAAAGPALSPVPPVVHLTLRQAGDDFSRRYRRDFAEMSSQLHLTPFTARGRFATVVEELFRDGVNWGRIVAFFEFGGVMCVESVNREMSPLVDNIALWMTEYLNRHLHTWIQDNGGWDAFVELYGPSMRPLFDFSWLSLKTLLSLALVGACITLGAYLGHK
T2 sequence (P08515 1-218, tags or fused parts left off): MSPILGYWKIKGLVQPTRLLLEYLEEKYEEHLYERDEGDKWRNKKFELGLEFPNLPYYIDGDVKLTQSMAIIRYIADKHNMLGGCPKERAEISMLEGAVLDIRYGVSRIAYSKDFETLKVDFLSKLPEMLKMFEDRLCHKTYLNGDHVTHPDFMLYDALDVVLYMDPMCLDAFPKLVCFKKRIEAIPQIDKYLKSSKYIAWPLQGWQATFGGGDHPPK
T3 sequence (P08515 1-218, tags or fused parts left off): as above
T4 sequence (P08515 whole entry): as the sequence (P08515 1-218, tags or fused parts left off) above

B1: Bcl-B (other, UniProt Q9HD36 1-204, looked up)
chain: MVDQLRERTTMADPLRERTELLLADYLGYCAREPGTPEPAPSTPEAAVLRSAAARLRQIHRSFFSAYLGYPGNRFELVALMADSVLSDSPGPTWGRVVTLVTFAGTLLERGPLVTARWKKWGFQPRLKEQEGDVARDCQRLVALLSSRLMGQHRAWLQAQGGWDGFCHFFRTPFPLAFWRKQLVQAFLSCLLTTAFIYLWTRLL
As to B1, in the assay with Nur77, the binding result is recorded as “binds”.
Turning to Ac-ASRSLHSLA-NH2 (Unconjugated form) [NuBCP-9/AA (unconjugated)], the binding result in the assay with GST-Bcl-2 [1] is “no binding”.

B2: FITC-NuBCP-9-r8 (peptide)
peptide: {FITC}-FSRSLHSLLG[Ahx][dR][dR][dR][dR][dR][dR][dR][dR]-NH2
modifications: not fully specified
notes: The point of attachment of FITC is not described beyond the name; also called FITC-L-NuBCP-9-r8
As for B2, the binding result with GST-Bcl-XL and with GST was “no binding” each time.

B3: Bfl-1 (other, UniProt Q16548 1-175, looked up)
chain: MTDCEFGYIYRLAQDYLQCVLQIPQPGSGPSKTSRVLQNVAFSVQKEVEKNLKSCLDNVNVVSVDTARTLFNQVMEKEFEDGIINWGRIVTIFAFEGILIKKLLRQQIAPDVDTYKEISYFVAEFIMNNTGEWIRQNGGWENGFVKKFEPKSGWMTFLEVTGKICEMLSLLKQYC
As to B3, the binding result with Nur77 is reported as “binds”.
In the case of Ac-FSRSLHSLL-NH2 [NuBCP-9 (unconjugated)], in the assay with GST-Bcl-2 [2], binding was put at a Kd of 2100 nM.

B4: Nur77 fragment DC-3 (other)
chain: GLVLHRLQCARGFGDWIDSILAFSRSLHSLLVDVPAFACLSALVLITDRHGLQEPRRVEELQNRIASCLKEHVAAVAGEPQPASCLSRLLGKLPELRTLCTQGLQRIFYLKLEDLVPPPPIIDKIFMDTLPF
In the case of B4, the binding result with Bcl-2 [3] was “binds”.

B5: NuBCP-20-r8 (peptide)
peptide: GDWIDSILAFSRSLHSLLVDKKCXRRRRRRRR
modifications: not fully specified; N-terminal acetyl; C-terminal Cys thiol linked to chloroacetylated 6-aminohexanoyl (X); eight D-arginines (r8)
notes: also called NuBCP-20-r8-peptide; TR3 peptide
Regarding B5, the binding result in the assay with Bcl-2 [4] was “binds”.
